Laboratory results: IntAct's records for PubMed 12050133

B1: Homeobox protein SIX3 (Mus musculus), Q62233 (parent)
chain: MVFRSPLDLYSSHFLLPNFADSHHCSLLLASSGGGSGASGGGGGAGGGGGGNRAGGGGAGGAGGGSGGGGSRAPPEELSMFQLPTLNFSPEQVASVCETLEETGDIERLGRFLWSLPVAPGACEAINKHESILRARAVVAFHTGNFRDLYHILENHKFTKESHGKLQAMWLEAHYQEAEKLRGRPLGPVDKYRVRKKFPLPRTIWDGEQKTHCFKERTRSLLREWYLQDPYPNPSKKRELAQATGLTPTQVGNWFKNRRQRDRAAAAKNRLQHQAIGPSGMRSLAEPGCPTHGSAESPSTAASPTTSVSSLTERADTGTSILSVTSSDSECDV

Variants of: B1
Conditions: with tle4_mouse Tle4, Q62441
Sequence of tle4_mouse Tle4, Q62441 (Q62441 whole entry): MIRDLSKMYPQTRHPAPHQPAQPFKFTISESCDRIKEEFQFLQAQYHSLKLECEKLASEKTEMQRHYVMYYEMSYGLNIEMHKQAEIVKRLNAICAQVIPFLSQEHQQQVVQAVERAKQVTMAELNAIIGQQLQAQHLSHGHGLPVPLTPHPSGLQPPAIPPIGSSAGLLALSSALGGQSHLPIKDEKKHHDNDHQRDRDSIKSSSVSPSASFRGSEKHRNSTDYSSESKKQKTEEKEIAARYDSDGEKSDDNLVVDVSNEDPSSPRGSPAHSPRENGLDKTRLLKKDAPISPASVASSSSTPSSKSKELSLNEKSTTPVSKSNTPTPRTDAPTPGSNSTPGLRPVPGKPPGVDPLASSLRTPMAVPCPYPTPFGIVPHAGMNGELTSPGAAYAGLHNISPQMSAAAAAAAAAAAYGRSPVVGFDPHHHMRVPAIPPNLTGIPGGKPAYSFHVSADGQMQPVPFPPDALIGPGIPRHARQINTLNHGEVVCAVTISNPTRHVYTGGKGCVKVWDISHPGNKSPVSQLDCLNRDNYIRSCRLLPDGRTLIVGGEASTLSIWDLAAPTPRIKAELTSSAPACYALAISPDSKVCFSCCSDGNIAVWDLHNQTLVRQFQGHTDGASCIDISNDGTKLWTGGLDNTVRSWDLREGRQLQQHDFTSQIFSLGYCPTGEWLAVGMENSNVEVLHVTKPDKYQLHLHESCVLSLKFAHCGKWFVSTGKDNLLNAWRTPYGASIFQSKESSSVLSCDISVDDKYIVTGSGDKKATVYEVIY

Row | effect of a mutation on the interaction | Variant
1 | decreasing interaction | F88E
